Reference: patent publication US5424205A, “Amyloidin protease and uses thereof” (Athena Neurosciences, Inc., priority 1993, dated 1995)
Entries after “also recorded” stand apart in the source; their conditions may differ. Residues, ends and D or L forms follow the SMILES beside them.

T1: clipsin/RMCP I (Rattus norvegicus, UniProt P09650)
T1 sequence (P09650 21-260): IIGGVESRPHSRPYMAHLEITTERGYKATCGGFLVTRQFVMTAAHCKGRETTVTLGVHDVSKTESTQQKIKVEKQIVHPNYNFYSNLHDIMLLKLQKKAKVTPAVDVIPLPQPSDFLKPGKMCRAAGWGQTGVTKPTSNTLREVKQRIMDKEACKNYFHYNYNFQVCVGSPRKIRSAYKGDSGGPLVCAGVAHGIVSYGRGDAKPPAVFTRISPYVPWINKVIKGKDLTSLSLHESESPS


Assays:
amyloidin [1] = molecular target: T2, amyloidin (Homo sapiens, UniProt P52888); experiment: Cleavage of APP592-601 and its analogs by amyloidin (subsite requirements); format: biochemical; details: pH 7.5, CaCl2, 37° C., 60 min; RP-HPLC
T2 construct: from tissue; a purification from blood is also described
T2 sequence (P52888 whole entry): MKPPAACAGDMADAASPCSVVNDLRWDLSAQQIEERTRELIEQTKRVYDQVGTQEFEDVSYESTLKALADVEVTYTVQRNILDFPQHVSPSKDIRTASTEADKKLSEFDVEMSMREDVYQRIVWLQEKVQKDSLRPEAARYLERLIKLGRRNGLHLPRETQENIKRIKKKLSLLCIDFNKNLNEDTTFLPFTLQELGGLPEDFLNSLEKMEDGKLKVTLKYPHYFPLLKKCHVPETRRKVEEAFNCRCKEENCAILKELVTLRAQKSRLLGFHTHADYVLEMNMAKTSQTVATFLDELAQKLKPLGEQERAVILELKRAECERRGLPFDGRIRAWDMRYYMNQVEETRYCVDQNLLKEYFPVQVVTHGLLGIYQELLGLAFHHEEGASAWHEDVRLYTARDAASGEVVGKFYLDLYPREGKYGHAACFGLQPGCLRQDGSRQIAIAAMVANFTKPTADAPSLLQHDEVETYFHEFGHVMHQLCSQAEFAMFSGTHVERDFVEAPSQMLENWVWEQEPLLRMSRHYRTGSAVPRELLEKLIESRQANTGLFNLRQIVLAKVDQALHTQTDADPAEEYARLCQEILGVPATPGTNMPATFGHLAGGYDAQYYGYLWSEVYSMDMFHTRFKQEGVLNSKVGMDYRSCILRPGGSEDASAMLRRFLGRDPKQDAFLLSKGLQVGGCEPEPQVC
Protocol: (§1) Routinely, 25 ul of enzyme solution were mixed with 10 ul of 1M Tris, pH 7.5, 5 ul 10 mM CaCl2, and 10 ul of a 2 mg/ml Stock solution of APP592-601 in water, or 20 mM Tris, pH 7.5, 0.15M NaCl, in 1.5 ml polypropylene microfuge tubes. The reaction mixtures were incubated for 60 min at 37° C. in a water bath, then quenched with 450 ul ice-cold ethanol, and incubated on ice for a further 20 min. They were centrifuged at 15,000×g for 10 min, and the supernatants transferred to new polypropylene tubes and dried under vacuum. The residue was dissolved in 0.5 ml water, centrifuged at 15,000×g for 5 min, and 200 ul of the supernatant injected onto a 0.46×30 cm Vydac C18 column equilibrated with 0.1% trifluoroacetic acid in water, at 1 ml/min. The column was immediately eluted with a linear gradient to 40% acetronitrile in 0.1% trifluoroacetic acid in water, over 20 minutes. The elution was monitored at 220 nm, and peaks were individually collected, hydrolyzed in 6N HCl at […] for 2 hr, then subjected to quantitative amino-acid analysis in an Applied Biosystems amino-acid analyzer. Once identified, times of elution were used to identify cleavage patterns.
In order to test the subsite requirements of amyloidin in the APP592-601 cleavage assay, analogs of this peptide substrate were synthesized.
Following synthesis and purification, the peptides were then incubated with amyloidin under conditions identical to those developed with APP592-601. The underlined residues designated changes from the native peptide sequence while the arrows indicate peptide cleavage sites. [drawing 5]

clipsin/RMCP I = molecular target: T1, clipsin/RMCP I; experiment: Cleavage of APP592-601 by clipsin/RMCP I; format: biochemical; details: standard peptide cleavage assay
Protocol: as §1
The procedure to isolate RMCP I was adapted exactly from that described by Nelson & Siman (1990), supra. […]

human skin chymase (HSC) [2] = experiment: Cleavage of APP592-601 by human skin chymase; format: biochemical; details: 200 ng enzyme; standard peptide cleavage assay
Protocol: as §1

[3] = tested on: extracts of mammalian tissues; experiment: Cleavage of amyloid-like substrate by soluble tissue extracts; format: biochemical; details: low-ionic strength extract; 0.1 to 10 mM Ca++; pH 6.5 to 8
Protocol: To isolate the amyloid protease activities of the present invention, extracts of mammalian tissues were made in a variety of aqueous buffers, such as, for example, Tris, phosphate and HEPES, of about 20-50 mM pH 7.5, at 4°-8° C., using conventional homogenation procedures, such as, for example, Waring blender or Teflon homogenizer, followed by repeated centrifugation at 10,000-15,000×g. The supernatant soluble fraction from this stage ("low ionic strength") are decanted and the pellet is further extracted with high ionic strength salt, for example 1M NaCl, and a detergent, such as 1% Triton X-100. If, however, the amyloidin proteases are to be isolated from mammalian cells such as erythrocytes, conventional cell disruption techniques may be employed. Such techniques include homogenization, sonication, osmotic lysis and pressure cycling. Prior to disruption, the cells may be first concentrated by filtration, centrifugation, or other conventional methods.
The various extracts are generally incubated with the amyloid-like substrates under a variety of conditions. […]
Aliquots of the sample are analyzed by injection onto a C18 reversed-phase HPLC column and elution with a 0-60% gradient of 0.1% TFA/acetonitrile, to assess the degradation of the substrate. […] Little peptide cleavage activity was detected under other extraction conditions, for example, with high salt or detergents. […]

amyloidin [4] = molecular target: T2, amyloidin; experiment: Inhibition of amyloidin by various inhibitors (APP592-601 peptide cleavage); format: biochemical
RMCP I [5] = experiment: Inhibition of RMCP I, APP592-601 cleaving activity; format: biochemical, rat; details: pre-treatment with 200 ng
RMCP I [6] = experiment: Inhibition of RMCP I, Suc-Ala-Ala-Pro-Phe-pNA hydrolysing activity; format: biochemical, rat; details: pre-treatment with 200 ng
RMCP I [7] = details: known before; listed as α1 -antichymotrypsin; cited from earlier work
brain protease = details: Abraham et al; cited from earlier work
human skin chymase (HSC) [8] = details: known before; cited from earlier work

site of cleavage by amyloidin (amyloidin [1]) | % Control Activity (amyloidin [4]; assay conc. 30 ug/ml, 30 min pre-incubation, room temperature) [%] | Molecule | site of cleavage of APP592-601 by clipsin/RMCP I (clipsin/RMCP I) | site of cleavage of APP592-601 by human skin chymase (human skin chymase (HSC) [2]) | major sites of cleavage by crude tissue extract [3] | inhibitory effect on amyloidin (amyloidin [4]; in words) | inhibition of APP592-601 cleaving protease activity (RMCP I [5]) | inhibition of Suc-Ala-Ala-Pro-Phe-pNA hydrolysing activity (RMCP I [6]) | inhibition of RMCP I, as known (RMCP I [7]) | inhibition of peptide cleavage by brain protease (brain protease) | inhibition of HSC, as known (human skin chymase (HSC) [8])
three-site cleavage |  | CSCC[C@H](NC(=O)[C@H](CCCCN)NC(=O)[C@@H](NC(=O)[C@H](CCC(=O)O)NC(=O)[C@H](CO)NC(C)=O)C(C)C)C(=O)N[C@@H](CC(=O)O)C(=O)N[C@@H](C)C(=O)N[C@@H](CCC(=O)O)C(=O)N[C@@H](Cc1ccccc1)C(=O)N[C@@H](CCCNC(=N)N)C(=O)O [APP592-601] (Ac-SEVKMDAEFR-OH) | cleavage at the Met-Asp bond; also recorded: selectively cleaves the amyloid substrate APP592-601 at the Met-Asp peptide bond; also recorded: all three proteases cleaved the APP592-601 peptide at the Met-Asp bond | cleavage at the Met-Asp bond; also recorded: all three proteases cleaved the APP592-601 peptide at the Met-Asp bond | between the Met-Asp, the Asp-Ala, and the Ala-Glu bonds |  |  |  |  |  | 
 | 121 | α1-ACT: general plasma serine proteinase inhibitor (protein, UniProt P01011 24-423, looked up) Alpha-1-antichymotrypsin: HPNSPLDEENLTQENQDRGTHVDLGLASANVDFAFSLYKQLVLKAPDKNVIFSPLSISTALAFLSLGAHNTTLTEILKGLKFNLTETSEAEIHQSFQHLLRTLNQSSDELQLSMGNAMFVKEQLSLLDRFTEDAKRLYGSEAFATDFQDSAAAKKLINDYVKNGTRGKITDLIKDLDSQTMMVLVNYIFFKAKWEMPFDPQDTHQSRFYLSKKKWVMVPMMSLHHLTIPYFRDEELSCTVVELKYTGNASALFILPDQDKMEEVEAMLLPETLKRWRDSLEFREIGELYLPKFSISRDYNLNDILLQLGIEEAFTSKADLSGITGARNLAVSQVVHKAVLDVFEEGTEASAATAVKITLLSALVETRTIVRFNRPFLMIIVPTDTQNIFFMSKVTNPKQA |  |  |  | Neither α-1-proteinase inhibitor or α-1-antichymotrypsin, two general plasma serine proteinase inhibitors, had any inhibitory effect | completely inhibited | completely eliminated | strong inhibitor of RMCP I; also recorded: inhibitable | inhibited | inhibitable
